This experiment has as its target T1, His-tagged recombinant Mouse TIGIT (mouse, UniProt P86176 29-148, limits assumed).
T1 construct: not shown: His tag
T1 sequence (looked up): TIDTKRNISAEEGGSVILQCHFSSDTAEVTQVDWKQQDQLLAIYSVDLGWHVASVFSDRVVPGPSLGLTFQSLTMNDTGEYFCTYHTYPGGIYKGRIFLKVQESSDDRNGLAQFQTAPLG
Nature of the experiment: ELISA, coated His-tagged mouse TIGIT. On the procedure: Binding affinities for antigen binding to anti-TIGIT monoclonal antibodies were determined by ELISA. […] Antibodies to be tested were diluted to 1 μM in PBS buffer containing 1% BSA and diluted 3-fold in a 10-point curve. […] Detection of the secondary antibody was determined using streptavidin-HRP and TMB reagent. All assays were performed at room temperature. Curve-fitting software was used to determine the EC₅₀ for each antibody.
On the technique in general: An ELISA detects its analyte on a solid surface through an enzyme-linked reagent.

What is called EC50 is the concentration giving half of the maximal effect.

B1: Ab126 (Fab, V domains shown)
VH: EVQLLESGGGLVQPGGSLRLSCAASGFTFSSYAMHWVRQAPGKGLEWVASISSSTGSIGYADSVKGRFTISRDNSKNTLYLQMNSLRAEDTAVYYCARVPYSYWMDYWGQGTLVTVSS
VL: not shown
notes: ARV set
With B1, the EC50 is 64.1 nM.

B2: Ab88 (Fab, V domains shown)
VH: EVQLLESGGGLVQPGGSLRLSCAASGFTFSSYSMSWVRQAPGKGLEWVASISSSAGTTSYADSVKGRFTISRDNSKNTLYLQMNSLRAEDTAVYYCARVPYGVWIDYWGQGTLVTVSS
VL: not shown
notes: ARV set
With B2, the concentration giving a half-maximal response (EC50) came out at 407 nM.

B3: Ab111 (Fab, V domains shown)
VH: EVQLLESGGGLVQPGGSLRLSCAASGFTFSSYSMHWVRQAPGKGLEWVSAISGSGGSTYYADSVKGRFTISRDNSKNTLYLQMNSLRAEDTAVYYCARVPYGYWMDYWGQGTLVTVSS
VL: not shown
notes: ARV set
Consider B3, for which the concentration for a half-maximal effect (EC50) was found to be 186 nM.

B4: Ab192 (Fab, V domains shown)
VH: EVQLLESGGGLVQPGGSLRLSCAASGFTFSSYAMHWVRQAPGKGLEWVSSISSDTGYIGYADSVKGRFTISRDNSKNTLYLQMNSLRAEDTAVYYCARVPYDVWIDYWGQGTLVTVSS
VL: not shown
notes: ARV set
For the molecule B4, the 50% effective concentration (EC50) came to 295 nM.

B5: Ab101 (Fab, V domains shown)
VH: EVQLLESGGGLVQPGGSLRLSCAASGFTFSSYAMSWVRQAPGKGLEWVADISGSAGTISYADSVKGRFTISRDNSKNTLYLQMNSLRAEDTAVYYCARVPYGYWLDYWGQGTLVTVSS
VL: not shown
notes: ARV set
With B5, the half-maximal effective concentration (EC50) was 535 nM.

B6: Ab182 (Fab, V domains shown)
VH: EVQLLESGGGLVQPGGSLRLSCAASGFTFSSYSMHWVRQAPGKGLEWVASISSNTGTTGYADSVKGRFTISRDNSKNTLYLQMNSLRAEDTAVYYCARVPYGYWIDYWGQGTLVTVSS
VL: not shown
notes: ARV set
For B6, the concentration giving a half-maximal response (EC50) is 200 nM.

B7: Ab190 (Fab, V domains shown)
VH: EVQLLESGGGLVQPGGSLRLSCAASGFTFSSYAMHWVRQAPGKGLEWVAAIKSSAGYSYYADSVKGRFTISRDNSKNTLYLQMNSLRAEDTAVYYCARVPYGVWIDYWGQGTLVTVSS
VL: not shown
notes: ARV set
Consider B7, for which the EC50 came out at 23.4 nM.

B8: Ab73 (Fab, V domains shown)
VH: EVQLLESGGGLVQPGGSLRLSCAASGFTFSSYSMSWVRQAPGKGLEWVASIKGSAGSSSYADSVKGRFTISRDNSKNTLYLQMNSLRAEDTAVYYCARVPYDVWLDYWGQGTLVTVSS
VL: not shown
notes: ARV set
B8: the EC50 is 266 nM.

B9: Ab51 (Fab, V domains shown)
VH: EVQLLESGGGLVQPGGSLRLSCAASGFTFSSYAMSWVRQAPGKGLEWVSSIKSNSGSKSYADSVKGRFTISRDNSKNTLYLQMNSLRAEDTAVYYCAREPYSVWMDYWGQGTLVTVSS
VL: not shown
notes: ARE set
With B9, the EC50 was found to be 79.8 nM.

B10: Ab91 (Fab, V domains shown)
VH: EVQLLESGGGLVQPGGSLRLSCAASGFTFSSYSMSWVRQAPGKGLEWVAAIKGSAGSSSYADSVKGRFTISRDNSKNTLYLQMNSLRAEDTAVYYCAREPYSYWLDYWGQGTLVTVSS
VL: not shown
notes: ARE set
On to B10, for which the EC50 came to 242 nM.

B11: Ab65 (Fab, V domains shown)
VH: EVQLLESGGGLVQPGGSLRLSCAASGFTFSSYAMSWVRQAPGKGLEWVAYIKSNTGSISYADSVKGRFTISRDNSKNTLYLQMNSLRAEDTAVYYCAREPYSVWLDYWGQGTLVTVSS
VL: not shown
notes: ARE set
In the case of B11, the 50% effective concentration (EC50) was 778 nM.

B12: Ab167 (Fab, V domains shown)
VH: EVQLLESGGGLVQPGGSLRLSCAASGFTFSSYAMHWVRQAPGKGLEWVASISGNAGSSSYADSVKGRFTISRDNSKNTLYLQMNSLRAEDTAVYYCARVPYGVWIDYWGQGTLVTVSS
VL: not shown
notes: ARV set
On to B12, for which the concentration for a half-maximal effect (EC50) amounted to 61.2 nM.

B13: Ab81 (Fab, V domains shown)
VH: EVQLLESGGGLVQPGGSLRLSCAASGFTFSSYSMHWVRQAPGKGLEWVASIKGNTGSSGYADSVKGRFTISRDNSKNTLYLQMNSLRAEDTAVYYCARVPYDVWIDYWGQGTLVTVSS
VL: not shown
notes: ARV set
Turning to B13, the 50% effective concentration (EC50) is 307 nM.

B14: Ab14 (Fab, V domains shown)
VH: EVQLLESGGGLVQPGGSLRLSCAASGFTFSSYGMHWVRQAPGKGLEWVSSISSSGGTKGYADSVKGRFTISRDNSKNTLYLQMNSLRAEDTAVYYCARVPYDVWMDYWGQGTLVTVSS
VL: not shown
notes: ARV set
With B14, the EC50 came out at 169 nM.

B15: Ab100 (Fab, V domains shown)
VH: EVQLLESGGGLVQPGGSLRLSCAASGFTFSSYAMSWVRQAPGKGLEWVASINGNAGTISYADSVKGRFTISRDNSKNTLYLQMNSLRAEDTAVYYCAREPYSYWLDYWGQGTLVTVSS
VL: not shown
notes: ARE set
As to B15, the EC50 came out at 258 nM.

B16: Ab8 (Fab, V domains shown)
VH: EVQLLESGGGLVQPGGSLRLSCAASGFTFSSYAMSWVRQAPGKGLEWVADIKSNGGYTYYADSVKGRFTISRDNSKNTLYLQMNSLRAEDTAVYYCARVPYGYWLDYWGQGTLVTVSS
VL: not shown
notes: ARV set
B16: the 50% effective concentration (EC50) is 149 nM.

B17: Ab42 (Fab, V domains shown)
VH: EVQLLESGGGLVQPGGSLRLSCAASGFTFSSYGMHWVRQAPGKGLEWVARINSNGGSKSYADSVKGRFTISRDNSKNTLYLQMNSLRAEDTAVYYCARGPYGYWFDYWGQGTLVTVSS
VL: not shown
notes: ARG set
In the case of B17, the concentration giving a half-maximal response (EC50) was 60.5 nM.

B18: Ab25 (Fab, V domains shown)
VH: EVQLLESGGGLVQPGGSLRLSCAASGFTFSSYGMHWVRQAPGKGLEWVAAIKSSGSSTSYADSVKGRFTISRDNSKNTLYLQMNSLRAEDTAVYYCARVPYGYWMDYWGQGTLVTVSS
VL: not shown
notes: ARV set
On to B18, for which the 50% effective concentration (EC50) worked out at 20.9 nM.

B19: Ab164 (Fab, V domains shown)
VH: EVQLLESGGGLVQPGGSLRLSCAASGFTFSSYAMSWVRQAPGKGLEWVSYINSNTGSIGYADSVKGRFTISRDNSKNTLYLQMNSLRAEDTAVYYCAREPYGVWMDYWGQGTLVTVSS
VL: not shown
notes: ARE set
As for B19, the EC50 was determined as 289 nM.

B20: Ab9 (Fab, V domains shown)
VH: EVQLLESGGGLVQPGGSLRLSCAASGFTFDSYSMHWVRQAPGKGLEWVANIKSSGGYISYADSVKGRFTISRDNSKNTLYLQMNSLRAEDTAVYYCARGPYDVWMDYWGQGTLVTVSS
VL: not shown
notes: ARG set
On to B20, for which the concentration for a half-maximal effect (EC50) amounted to 181 nM.

B21: Ab31 (Fab, V domains shown)
VH: EVQLLESGGGLVQPGGSLRLSCAASGFTFSSYTMHWVRQAPGKGLEWVANIKSSSSTKYYADSVKGRFTISRDNSKNTLYLQMNSLRAEDTAVYYCARGPYDVWLDYWGQGTLVTVSS
VL: not shown
notes: ARG set
Consider B21, for which the concentration for a half-maximal effect (EC50) amounted to 56.9 nM.

B22: Ab45 (Fab, V domains shown)
VH: EVQLLESGGGLVQPGGSLRLSCAASGFTFSSYGMNWVRQAPGKGLEWVARISSSGSYIGYADSVKGRFTISRDNSKNTLYLQMNSLRAEDTAVYYCARGPYGYWLDYWGQGTLVTVSS
VL: not shown
notes: ARG set
B22: the EC50 amounted to 48 nM.

B23: Ab5 (Fab, V domains shown)
VH: EVQLLESGGGLVQPGGSLRLSCAASGFTFSDYSMNWVRQAPGKGLEWVALIKSNSGSTSYADSVKGRFTISRDNSKNTLYLQMNSLRAEDTAVYYCARGPYDVWMDYWGQGTLVTVSS
VL: not shown
notes: ARG set
For B23, the EC50 was determined as 322 nM.

B24: Ab77 (Fab, V domains shown)
VH: EVQLLESGGGLVQPGGSLRLSCAASGFTFSSYSMNWVRQAPGKGLEWVAAISGNTGYTYYADSVKGRFTISRDNSKNTLYLQMNSLRAEDTAVYYCAREPYSYWMDYWGQGTLVTVSS
VL: not shown
notes: ARE set
For the molecule B24, the EC50 came to 111 nM.

B25: Ab87 (Fab, V domains shown)
VH: EVQLLESGGGLVQPGGSLRLSCAASGFTFSSYSMSWVRQAPGKGLEWVASIKSSAGYISYADSVKGRFTISRDNSKNTLYLQMNSLRAEDTAVYYCARVPYDYWIDYWGQGTLVTVSS
VL: not shown
notes: ARV set
In the case of B25, the concentration giving a half-maximal response (EC50) amounted to 230 nM.

B26: Ab44 (Fab, V domains shown)
VH: EVQLLESGGGLVQPGGSLRLSCAASGFTFSSYSMHWVRQAPGKGLEWVSAISSDGSYISYADSVKGRFTISRDNSKNTLYLQMNSLRAEDTAVYYCARVPYDVWFDYWGQGTLVTVSS
VL: not shown
notes: ARV set
In the case of B26, the 50% effective concentration (EC50) came out at 128 nM.

B27: Ab79 (Fab, V domains shown)
VH: EVQLLESGGGLVQPGGSLRLSCAASGFTFSSYAMHWVRQAPGKGLEWVADIKSNTGYTYYADSVKGRFTISRDNSKNTLYLQMNSLRAEDTAVYYCARVPYGVWIDYWGQGTLVTVSS
VL: not shown
notes: ARV set
As for B27, the EC50 came out at 86.6 nM.

B28: Ab36 (Fab, V domains shown)
VH: EVQLLESGGGLVQPGGSLRLSCAASGFTFSSYAMSWVRQAPGKGLEWVASIKSSGSYKSYADSVKGRFTISRDNSKNTLYLQMNSLRAEDTAVYYCAREPYSTWLDYWGQGTLVTVSS
VL: not shown
notes: ARE set
Regarding B28, the concentration for a half-maximal effect (EC50) was determined as 470 nM.

B29: Ab57 (Fab, V domains shown)
VH: EVQLLESGGGLVQPGGSLRLSCAASGFTFSSYSMHWVRQAPGKGLEWVAYIKSDTSTIGYADSVKGRFTISRDNSKNTLYLQMNSLRAEDTAVYYCARVPYDVWIDYWGQGTLVTVSS
VL: not shown
notes: ARV set
For B29, the 50% effective concentration (EC50) worked out at 305 nM.

B30: Ab196 (Fab, V domains shown)
VH: EVQLLESGGGLVQPGGSLRLSCAASGFTFSSYSMNWVRQAPGKGLEWVSSIKGSAGTTSYADSVKGRFTISRDNSKNTLYLQMNSLRAEDTAVYYCAREPYSVWMDYWGQGTLVTVSS
VL: not shown
notes: ARE set
Regarding B30, the EC50 was 19.5 nM.

B31: Ab71 (Fab, V domains shown)
VH: EVQLLESGGGLVQPGGSLRLSCAASGFTFSSYSMHWVRQAPGKGLEWVASISSSASTSYYADSVKGRFTISRDNSKNTLYLQMNSLRAEDTAVYYCARVPYGVWIDYWGQGTLVTVSS
VL: not shown
notes: ARV set
As to B31, the EC50 is 477 nM.

B32: Ab26 (Fab, V domains shown)
VH: EVQLLESGGGLVQPGGSLRLSCAASGFTFSSYSMSWVRQAPGKGLEWVADIKSSGSTKSYADSVKGRFTISRDNSKNTLYLQMNSLRAEDTAVYYCAREPYDYWMDYWGQGTLVTVSS
VL: not shown
notes: ARE set
Regarding B32, the EC50 was found to be 47.5 nM.

The values above are taken from patent publication US20200339678A1 (RIGEL PHARMACEUTICALS, published 2020).
